Experimental data: patent US20080138818A1

Assays:
[1] = target: Type I IFN receptor (human) (UniProt P17181); assay: cell-based or functional assay
[2] = target: T1, Type II IFN (IFN γ) receptor (human) (UniProt P15260); assay: cell-based or functional assay
T1 sequence (looked up) 1: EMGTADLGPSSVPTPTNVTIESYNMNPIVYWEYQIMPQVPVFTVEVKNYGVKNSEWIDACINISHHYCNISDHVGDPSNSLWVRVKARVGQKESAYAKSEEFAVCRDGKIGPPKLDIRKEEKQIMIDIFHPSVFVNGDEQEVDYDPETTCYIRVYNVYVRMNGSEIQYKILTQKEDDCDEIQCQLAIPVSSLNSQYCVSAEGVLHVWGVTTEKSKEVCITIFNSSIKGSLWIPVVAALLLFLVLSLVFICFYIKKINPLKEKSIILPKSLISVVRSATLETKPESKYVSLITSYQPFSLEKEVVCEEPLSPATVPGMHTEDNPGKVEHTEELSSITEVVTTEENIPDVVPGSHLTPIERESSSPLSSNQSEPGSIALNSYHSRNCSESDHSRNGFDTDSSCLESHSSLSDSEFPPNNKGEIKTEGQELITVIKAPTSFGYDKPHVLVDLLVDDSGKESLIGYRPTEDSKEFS
T1 sequence (looked up) 2: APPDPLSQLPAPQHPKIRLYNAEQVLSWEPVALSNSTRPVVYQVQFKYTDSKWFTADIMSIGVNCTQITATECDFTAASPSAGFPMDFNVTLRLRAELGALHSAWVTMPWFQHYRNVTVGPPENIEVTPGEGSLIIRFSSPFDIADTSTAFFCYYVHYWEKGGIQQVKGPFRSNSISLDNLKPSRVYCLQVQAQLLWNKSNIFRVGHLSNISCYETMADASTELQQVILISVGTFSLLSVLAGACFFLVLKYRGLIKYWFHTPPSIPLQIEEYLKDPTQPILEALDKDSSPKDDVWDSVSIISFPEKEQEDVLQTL

UniProt P17181, sequence (P17181 28-557, chain 1 of 2): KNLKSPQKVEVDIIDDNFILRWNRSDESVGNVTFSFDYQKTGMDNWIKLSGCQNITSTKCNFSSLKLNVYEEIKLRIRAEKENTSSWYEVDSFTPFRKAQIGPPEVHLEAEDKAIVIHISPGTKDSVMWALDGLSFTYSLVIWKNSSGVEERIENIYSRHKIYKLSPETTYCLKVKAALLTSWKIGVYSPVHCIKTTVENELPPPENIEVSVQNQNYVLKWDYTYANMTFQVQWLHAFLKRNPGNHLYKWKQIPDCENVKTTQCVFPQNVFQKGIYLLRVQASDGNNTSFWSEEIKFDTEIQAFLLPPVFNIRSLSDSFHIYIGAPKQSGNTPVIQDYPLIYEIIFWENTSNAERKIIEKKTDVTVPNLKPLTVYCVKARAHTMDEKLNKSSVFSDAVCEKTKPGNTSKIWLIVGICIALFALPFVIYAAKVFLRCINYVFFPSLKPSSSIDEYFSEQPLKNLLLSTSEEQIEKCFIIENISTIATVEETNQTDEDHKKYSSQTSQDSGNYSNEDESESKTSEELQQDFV
UniProt P17181, sequence (P48551 27-515, chain 2 of 2, further chain): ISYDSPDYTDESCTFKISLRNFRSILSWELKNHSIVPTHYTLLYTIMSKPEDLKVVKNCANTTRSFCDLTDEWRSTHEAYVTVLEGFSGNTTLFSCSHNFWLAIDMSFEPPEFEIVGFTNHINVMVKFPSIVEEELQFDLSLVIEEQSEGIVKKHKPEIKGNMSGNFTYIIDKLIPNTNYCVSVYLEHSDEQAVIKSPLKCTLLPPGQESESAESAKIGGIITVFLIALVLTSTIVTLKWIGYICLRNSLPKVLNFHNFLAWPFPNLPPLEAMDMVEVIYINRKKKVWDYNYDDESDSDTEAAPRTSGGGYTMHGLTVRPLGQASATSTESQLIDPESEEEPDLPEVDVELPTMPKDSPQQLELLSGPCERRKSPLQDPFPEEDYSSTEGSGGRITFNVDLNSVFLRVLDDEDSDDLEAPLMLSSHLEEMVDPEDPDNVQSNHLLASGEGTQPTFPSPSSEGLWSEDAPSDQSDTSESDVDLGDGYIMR

Substance | RLU (Relative Luciferase Units): Fold Increase, GAS-Luc reporter in U937 cells, IFNα 1.0 IU/ml [1] [fold] | RLU (Relative Luciferase Units): Fold Increase, GAS-Luc reporter in U937 cells, IFNα 100.0 IU/ml [1] [fold] | RLU (Relative Luciferase Units): Fold Increase, GAS-Luc reporter in U266R cells Clone 2 (UIG2), IFNγ 1.0 IU/ml [2] [fold] | RLU (Relative Luciferase Units): Fold Increase, GAS-Luc reporter in U266R cells Clone 2 (UIG2), IFNγ 100 0 IU/ml (so in the source) [2] [fold] | RLU (Relative Luciferase Units): Fold Increase, GAS-Luc reporter in U937 cells, IFNγ 10.0 IU/ml [2] [fold] | RLU (Relative Luciferase Units): Fold Increase, GAS-Luc reporter in U937 cells, IFNγ 100 0 IU/ml (so in the source) [2] [fold] | fold increase in RLU, IRF-Luc reporter in U937 cells Clone #2 (IRF-Luc2), IFNγ [2] [fold]
human IFNα (ligand) | 1.5 | 3 | – | – | – | – | –
human interferon gamma (IFNγ) (from UniProt P01579 24-166) (ligand) | – | – | 1.5 | 9 | 1.25 | 1.5 | 1.1
